Measurements reported in US20240199746A1 (published 2024).

T1: Ax1 protein, extracellular domain (human, UniProt P30530 26-451)
T1 construct: extracellular domain; also called Axl; Ark
T1 sequence (looked up): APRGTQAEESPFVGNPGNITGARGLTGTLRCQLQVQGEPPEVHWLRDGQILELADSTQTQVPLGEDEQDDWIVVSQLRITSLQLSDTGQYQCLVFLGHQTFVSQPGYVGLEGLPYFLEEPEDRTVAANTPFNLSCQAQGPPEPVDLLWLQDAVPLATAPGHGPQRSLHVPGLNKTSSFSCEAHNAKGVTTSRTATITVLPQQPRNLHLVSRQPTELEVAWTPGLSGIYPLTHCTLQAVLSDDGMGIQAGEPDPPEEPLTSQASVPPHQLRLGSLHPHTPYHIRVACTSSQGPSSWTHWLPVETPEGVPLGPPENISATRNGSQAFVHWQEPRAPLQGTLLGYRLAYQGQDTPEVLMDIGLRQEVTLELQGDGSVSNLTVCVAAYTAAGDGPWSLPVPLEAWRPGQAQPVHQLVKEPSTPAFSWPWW


What was measured:
[1] = biological target: T1, Ax1 protein, extracellular domain; experiment: ELISA, mutant diluted 1:3
Excerpt: (§1) The DNA encoding the wild-type antibody was evolved to generate a mutant antibody library using Comprehensive Positional Evolution (CPE), which each position in the template antibody is randomized one at a time. Each mutant antibody in the library has only one single point mutation. The mutant antibodies in the library were generated by simultaneously screening for selective binding affinity to Ax1 at pH 6.0 over pH 7.4 by ELISA. Two mutant antibody dilutions were used: 1:3 and 1:9 dilutions.

[2] = biological target: T1, Ax1 protein, extracellular domain; experiment: ELISA, mutant diluted 1:9
Excerpt: as §1

Row | Binder | Affinity ELISA CPE mutant ratio (1:3, pH 6.0/7.4) [1] | Affinity ELISA CPE mutant ratio (1:9, pH 6.0/7.4) [2]
1 | HC-S059T (antibody, V domains shown, CPE single point mutant) VH: EVQLVQSGAEVKKPGATVKISCKVSGYSFTGHTMNWIRQPPGKGLEWIGLIKPSNGGTTYNQKFKGRVTISADKSISTAYLQWSSLKASDTAMYYCAHGHYESYFAMDYWGQGTLVTVSS VL: DIQMTQSPSSLSASVGDRVTITCKASQDVSSAVAWYQQKPGQAPRLLIYWASTRHTGVPSRFSGSGSGTEFTLTISSLQPDDFATYYCQEHFSTPLTFGQGTKVEIK | 1.02 | 1.93
2 | LC-A034N (antibody, V domains shown, CPE single point mutant) VH: EVQLVQSGAEVKKPGATVKISCKVSGYSFTGHTMNWIRQPPGKGLEWIGLIKPSNGGTSYNQKFKGRVTISADKSISTAYLQWSSLKASDTAMYYCAHGHYESYFAMDYWGQGTLVTVSS VL: DIQMTQSPSSLSASVGDRVTITCKASQDVSSAVNWYQQKPGQAPRLLIYWASTRHTGVPSRFSGSGSGTEFTLTISSLQPDDFATYYCQEHFSTPLTFGQGTKVEIK | 2.63 | 2.4
3 | LC-A034D (antibody, V domains shown, CPE single point mutant) VH: EVQLVQSGAEVKKPGATVKISCKVSGYSFTGHTMNWIRQPPGKGLEWIGLIKPSNGGTSYNQKFKGRVTISADKSISTAYLQWSSLKASDTAMYYCAHGHYESYFAMDYWGQGTLVTVSS VL: DIQMTQSPSSLSASVGDRVTITCKASQDVSSAVDWYQQKPGQAPRLLIYWASTRHTGVPSRFSGSGSGTEFTLTISSLQPDDFATYYCQEHFSTPLTFGQGTKVEIK | 3 | 2.6
4 | LC-A051I (antibody, V domains shown, CPE single point mutant) VH: EVQLVQSGAEVKKPGATVKISCKVSGYSFTGHTMNWIRQPPGKGLEWIGLIKPSNGGTSYNQKFKGRVTISADKSISTAYLQWSSLKASDTAMYYCAHGHYESYFAMDYWGQGTLVTVSS VL: DIQMTQSPSSLSASVGDRVTITCKASQDVSSAVAWYQQKPGQAPRLLIYWISTRHTGVPSRFSGSGSGTEFTLTISSLQPDDFATYYCQEHFSTPLTFGQGTKVEIK | 2.24 | 2.14
5 | HC-T033I (antibody, V domains shown, CPE single point mutant) VH: EVQLVQSGAEVKKPGATVKISCKVSGYSFTGHIMNWIRQPPGKGLEWIGLIKPSNGGTSYNQKFKGRVTISADKSISTAYLQWSSLKASDTAMYYCAHGHYESYFAMDYWGQGTLVTVSS VL: DIQMTQSPSSLSASVGDRVTITCKASQDVSSAVAWYQQKPGQAPRLLIYWASTRHTGVPSRFSGSGSGTEFTLTISSLQPDDFATYYCQEHFSTPLTFGQGTKVEIK | 1.59 | 1
6 | LC-A032M (antibody, V domains shown, CPE single point mutant) VH: EVQLVQSGAEVKKPGATVKISCKVSGYSFTGHTMNWIRQPPGKGLEWIGLIKPSNGGTSYNQKFKGRVTISADKSISTAYLQWSSLKASDTAMYYCAHGHYESYFAMDYWGQGTLVTVSS VL: DIQMTQSPSSLSASVGDRVTITCKASQDVSSMVAWYQQKPGQAPRLLIYWASTRHTGVPSRFSGSGSGTEFTLTISSLQPDDFATYYCQEHFSTPLTFGQGTKVEIK | 4.76 | 2.92
7 | HC-Y104P (antibody, V domains shown, CPE single point mutant) VH: EVQLVQSGAEVKKPGATVKISCKVSGYSFTGHTMNWIRQPPGKGLEWIGLIKPSNGGTSYNQKFKGRVTISADKSISTAYLQWSSLKASDTAMYYCAHGHYESPFAMDYWGQGTLVTVSS VL: DIQMTQSPSSLSASVGDRVTITCKASQDVSSAVAWYQQKPGQAPRLLIYWASTRHTGVPSRFSGSGSGTEFTLTISSLQPDDFATYYCQEHFSTPLTFGQGTKVEIK | 2.54 | 2.42
8 | LC-A034Q (antibody, V domains shown, CPE single point mutant) VH: EVQLVQSGAEVKKPGATVKISCKVSGYSFTGHTMNWIRQPPGKGLEWIGLIKPSNGGTSYNQKFKGRVTISADKSISTAYLQWSSLKASDTAMYYCAHGHYESYFAMDYWGQGTLVTVSS VL: DIQMTQSPSSLSASVGDRVTITCKASQDVSSAVQWYQQKPGQAPRLLIYWASTRHTGVPSRFSGSGSGTEFTLTISSLQPDDFATYYCQEHFSTPLTFGQGTKVEIK | 2 | 1.41
9 | HC-Y101N (antibody, V domains shown, CPE single point mutant) VH: EVQLVQSGAEVKKPGATVKISCKVSGYSFTGHTMNWIRQPPGKGLEWIGLIKPSNGGTSYNQKFKGRVTISADKSISTAYLQWSSLKASDTAMYYCAHGHNESYFAMDYWGQGTLVTVSS VL: DIQMTQSPSSLSASVGDRVTITCKASQDVSSAVAWYQQKPGQAPRLLIYWASTRHTGVPSRFSGSGSGTEFTLTISSLQPDDFATYYCQEHFSTPLTFGQGTKVEIK | 2.17 | 2.91
10 | HC-T030A (antibody, V domains shown, CPE single point mutant) VH: EVQLVQSGAEVKKPGATVKISCKVSGYSFAGHTMNWIRQPPGKGLEWIGLIKPSNGGTSYNQKFKGRVTISADKSISTAYLQWSSLKASDTAMYYCAHGHYESYFAMDYWGQGTLVTVSS VL: DIQMTQSPSSLSASVGDRVTITCKASQDVSSAVAWYQQKPGQAPRLLIYWASTRHTGVPSRFSGSGSGTEFTLTISSLQPDDFATYYCQEHFSTPLTFGQGTKVEIK | 1.29 | 1.76
11 | HC-S103Q (antibody, V domains shown, CPE single point mutant) VH: EVQLVQSGAEVKKPGATVKISCKVSGYSFTGHTMNWIRQPPGKGLEWIGLIKPSNGGTSYNQKFKGRVTISADKSISTAYLQWSSLKASDTAMYYCAHGHYEQYFAMDYWGQGTLVTVSS VL: DIQMTQSPSSLSASVGDRVTITCKASQDVSSAVAWYQQKPGQAPRLLIYWASTRHTGVPSRFSGSGSGTEFTLTISSLQPDDFATYYCQEHFSTPLTFGQGTKVEIK | 0.912 | 2.26
12 | HC-S103D (antibody, V domains shown, CPE single point mutant) VH: EVQLVQSGAEVKKPGATVKISCKVSGYSFTGHTMNWIRQPPGKGLEWIGLIKPSNGGTSYNQKFKGRVTISADKSISTAYLQWSSLKASDTAMYYCAHGHYEDYFAMDYWGQGTLVTVSS VL: DIQMTQSPSSLSASVGDRVTITCKASQDVSSAVAWYQQKPGQAPRLLIYWASTRHTGVPSRFSGSGSGTEFTLTISSLQPDDFATYYCQEHFSTPLTFGQGTKVEIK | 4.24 | 2.23
13 | LC-A032L (antibody, V domains shown, CPE single point mutant) VH: EVQLVQSGAEVKKPGATVKISCKVSGYSFTGHTMNWIRQPPGKGLEWIGLIKPSNGGTSYNQKFKGRVTISADKSISTAYLQWSSLKASDTAMYYCAHGHYESYFAMDYWGQGTLVTVSS VL: DIQMTQSPSSLSASVGDRVTITCKASQDVSSLVAWYQQKPGQAPRLLIYWASTRHTGVPSRFSGSGSGTEFTLTISSLQPDDFATYYCQEHFSTPLTFGQGTKVEIK | 1.9 | 2.27
